B1: 6mer-1-1119 (peptide)
peptide: KRIWVR
B2: 6mer-1-1126 (peptide)
peptide: RRHCDK
B3: 6mer-1-1105 (peptide)
peptide: RRCTAR
B4: 6mer-1-1113 (peptide)
peptide: RRCTMK
B5: 6mer-1-1091 (peptide)
peptide: KKDDGK
B6: 6mer-1-1120 (peptide)
peptide: RRKEAK
B7: 6mer-1-1097 (peptide)
peptide: RKNCNK
B8: 6mer-1-1099 (peptide)
peptide: RRKTDR
B9: 6mer-1-1117 (peptide)
peptide: KKEWFR
B10: 6mer-1-1115 (peptide)
peptide: RKCAFR
B11: 6mer-1-1106 (peptide)
peptide: KRFMNK
B12: 6mer-1-1129 (peptide)
peptide: RKDHAR
B13: 6mer-1-1116 (peptide)
peptide: KRHPFR
B14: 6mer-1-1104 (peptide)
peptide: KRNSAR
B15: 6mer-1-1092 (peptide)
peptide: RKYHDK
B16: 6mer-1-1093 (peptide)
peptide: RRKSDR
B17: 6mer-1-1089 (peptide)
peptide: RKFTKK
B18: 6mer-1-1118 (peptide)
peptide: KKDTIK
B19: 6mer-1-1100 (peptide)
peptide: KRMSHK
B20: 6mer-1-1094 (peptide)
peptide: RRMAIK
B21: 6mer-1-1127 (peptide)
peptide: RKMMMK
B22: 6mer-1-1112 (peptide)
peptide: KKDPWK
B23: 6mer-1-1109 (peptide)
peptide: KRCCVR
B24: 6mer-1-1103 (peptide)
peptide: KREDNK
B25: 6mer-1-1101 (peptide)
peptide: RRECDK
B26: 6mer-1-1095 (peptide)
peptide: RRCHVK
B27: 6mer-1-1123 (peptide)
peptide: RRDNVK
B28: 6mer-1-1098 (peptide)
peptide: RKKDMR
B29: 6mer-1-1121 (peptide)
peptide: KKTWWR
B30: 6mer-1-1125 (peptide)
peptide: KKPTDR
B31: 6mer-1-1110 (peptide)
peptide: RKFTER
B32: 6mer-1-1114 (peptide)
peptide: KKFNFK
B33: 6mer-1-1102 (peptide)
peptide: KRFTKK
B34: 6mer-1-1096 (peptide)
peptide: RKPEPR
B35: 6mer-1-1108 (peptide)
peptide: RRAHNK
B36: 6mer-1-1124 (peptide)
peptide: KKDEIR
B37: 6mer-1-1111 (peptide)
peptide: RRASPR
B38: 6mer-1-1128 (peptide)
peptide: KKKKPK
B39: 6mer-1-1090 (peptide)
peptide: KKTMWR
B40: 6mer-1-1107 (peptide)
peptide: KRCPPR
B41: 6mer-1-1131 (peptide)
peptide: RKDNIK
B42: 6mer-1-1130 (peptide)
peptide: RKATFR
B43: 6mer-1-1122 (peptide)
peptide: RRTMGR
B44: 5mer-61 (peptide)
peptide: RLILK
B45: 5mer-363 (peptide)
peptide: KRVRK
B46: 5mer-364 (peptide)
peptide: RWITR
B47: 5mer-356 (peptide)
peptide: KQVLR
B48: 5mer-362 (peptide)
peptide: KQRLK
B49: 5mer-62 (peptide)
peptide: KQLTK
B50: 5mer-57 (peptide)
peptide: KQLYR
B51: 5mer-353 (peptide)
peptide: KSQLK
B52: 5mer-64 (peptide)
peptide: KVVTR
B53: 5mer-360 (peptide)
peptide: RQLCK
B54: 5mer-365 (peptide)
peptide: KRRYK
B55: 5mer-60 (peptide)
peptide: RLFTK
B56: 5mer-59 (peptide)
peptide: KLQYR
B57: 5mer-358 (peptide)
peptide: KVRSK
B58: 5mer-55 (peptide)
peptide: RRFSR
B59: 5mer-359 (peptide)
peptide: KRFQK
B60: 5mer-349 (peptide)
peptide: KQVYR
B61: 5mer-65 (peptide)
peptide: RQIRR
B62: 5mer-361 (peptide)
peptide: RSYQR
B63: 5mer-366 (peptide)
peptide: RQLQK
B64: 5mer-350 (peptide)
peptide: KSYYK
B65: 5mer-354 (peptide)
peptide: RSQTR
B66: 5mer-51 (peptide)
peptide: RSLQR
B67: 5mer-357 (peptide)
peptide: RGFRK
B68: 5mer-53 (peptide)
peptide: RLVTR
B69: 5mer-50 (peptide)
peptide: KLLCR
B70: 5mer-54 (peptide)
peptide: KWLQR
B71: 5mer-352 (peptide)
peptide: RLVRK
B72: 5mer-63 (peptide)
peptide: RLLRK
B73: 5mer-56 (peptide)
peptide: KRFCK
B74: 5mer-351 (peptide)
peptide: KSFSK
B75: 5mer-66 (peptide)
peptide: KRLLR
B76: 5mer-52 (peptide)
peptide: RQQYK
B77: 5mer-58 (peptide)
peptide: KWVSK
B78: 5mer-355 (peptide)
peptide: KLLYR
B79: 5mer-49 (peptide)
peptide: KWRTR

Each binder was assayed against acetylcholine receptor (assay: SPR, AchR immobilised, peptide 10 uM).

| Binding affinity (RU) | Binder |
| --- | --- |
| 31 | B1 |
| 41 | B2 |
| 40 | B3 |
| 28 | B4 |
| 32 | B5 |
| 22 | B6 |
| 39 | B7 |
| 24 | B8 |
| 40 | B9 |
| 43 | B10 |
| 39 | B11 |
| 39 | B12 |
| 35 | B13 |
| 28 | B14 |
| 43 | B15 |
| 37 | B16 |
| 31 | B17 |
| 33 | B18 |
| 43 | B19 |
| 42 | B20 |
| 34 | B21 |
| 27 | B22 |

| Binding affinity (RU) | Binder |
| --- | --- |
| 41 | B23 |
| 27 | B24 |
| 37 | B25 |
| 27 | B26 |
| 41 | B27 |
| 42 | B28 |
| 28 | B29 |
| 26 | B30 |
| 24 | B31 |
| 38 | B32 |
| 35 | B33 |
| 23 | B34 |
| 43 | B35 |
| 21 | B36 |
| 38 | B37 |
| 39 | B38 |
| 27 | B39 |
| 36 | B40 |
| 42 | B41 |
| 31 | B42 |
| 33 | B43 |

What follows are binders tested against acetylcholine receptor (assay: SPR, peptide at 10 µM on acetylcholine receptor).

| Binding affinity (RU) | Binder |
| --- | --- |
| 66 | B44 |
| 59 | B45 |
| 62 | B46 |
| 65 | B47 |
| 62 | B48 |
| 70 | B49 |
| 73 | B50 |
| 59 | B51 |
| 76 | B52 |
| 66 | B53 |
| 52 | B54 |
| 86 | B55 |
| 68 | B56 |
| 50 | B57 |
| 58 | B58 |
| 79 | B59 |
| 50 | B60 |
| 67 | B61 |

| Binding affinity (RU) | Binder |
| --- | --- |
| 58 | B62 |
| 52 | B63 |
| 59 | B64 |
| 64 | B65 |
| 70 | B66 |
| 54 | B67 |
| 50 | B68 |
| 63 | B69 |
| 66 | B70 |
| 76 | B71 |
| 86 | B72 |
| 59 | B73 |
| 75 | B74 |
| 80 | B75 |
| 50 | B76 |
| 75 | B77 |
| 87 | B78 |
| 62 | B79 |
